Each block holds one binder with its values, some of them ahead of it.
What was measured:
Settings in all cases: both partners purified
[1] = target: T1, biotinylated multidomain FZD3 (C-terminally truncated, in detergent) (human, UniProt Q9NPG1, biotin (in vivo biotinylation of the Avi tag)); test: BLI; Octet Red 96e; biotinylated multidomain FZD3 or FZD6 in detergent immobilised, nanobody or DEP in solution; 10 mM HEPES pH 7.5, 150 mM NaCl, 0.02% Tween 20, 0.005% GDN; 1:1 binding model
T1 construct: human Frizzled-3 (FZD3), UniProt Q9NPG1; C-terminally truncated construct (CRD, linker and transmembrane domain); residues 26-517 are stated for the multidomain production construct, not expressly for the Avi-tagged one; The results call it 'full-length FZD3'; the methods say the biotinylated transmembrane constructs were C-terminally truncated; Functional assays in cells used wild type FZD3 …

[2] = target: T2, biotinylated FZD6 (C-terminally truncated transmembrane construct, in detergent) (Homo sapiens, UniProt O60353, biotin (in vivo biotinylation of the Avi tag)); test: as above
T2 construct: Frizzled-6 (FZD6), C-terminally truncated transmembrane construct; the methods say C-terminal truncated, without limits; also called full length FZD6; source: HEK293T with biotin ligase, transfected, biotinylated in vivo, in detergent; not shown: Avi3, C-terminal, kept

[3] = target: T3, biotinylated FZD1 cysteine-rich domain (CRD) (Homo sapiens, UniProt Q9UP38, biotin (in vivo biotinylation of the Avi tag)); test: BLI; BLItz System; initial qualitative test of the 10 biotinylated human FZD CRDs binding to Nb8
T3 construct: human Frizzled-1 (FZD1) cysteine-rich domain; One of 'all 10 human Frizzled CRDs'; also called FZD1 CRD; source: HEK293T constitutively expressing ER-localised biotin ligase, transfected, biotinylated in vivo; not shown: Avi3, C-terminal, kept

[4] = target: T4, biotinylated FZD2 cysteine-rich domain (CRD) (Homo sapiens, UniProt Q14332, biotin (in vivo biotinylation of the Avi tag)); test: as above
T4 construct: human Frizzled-2 (FZD2) cysteine-rich domain; One of 'all 10 human Frizzled CRDs'; also called FZD2 CRD; source: HEK293T constitutively expressing ER-localised biotin ligase, transfected, biotinylated in vivo; not shown: Avi3, C-terminal, kept

[5] = target: T5, biotinylated FZD4 cysteine-rich domain (CRD) (Homo sapiens, UniProt Q9ULV1, biotin (in vivo biotinylation of the Avi tag)); test: as above
T5 construct: human Frizzled-4 (FZD4) cysteine-rich domain; One of 'all 10 human Frizzled CRDs'; also called FZD4 CRD; source: HEK293T constitutively expressing ER-localised biotin ligase, transfected, biotinylated in vivo; not shown: Avi3, C-terminal, kept

[6] = target: T6, biotinylated FZD5 cysteine-rich domain (CRD) (Homo sapiens, UniProt Q13467, biotin (in vivo biotinylation of the Avi tag)); test: as above
T6 construct: human Frizzled-5 (FZD5) cysteine-rich domain; One of 'all 10 human Frizzled CRDs'; also called FZD5 CRD; source: HEK293T constitutively expressing ER-localised biotin ligase, transfected, biotinylated in vivo; not shown: Avi3, C-terminal, kept

[7] = target: T7, biotinylated FZD7 cysteine-rich domain (CRD) (Homo sapiens, UniProt O75084, biotin (in vivo biotinylation of the Avi tag)); test: as above
T7 construct: human Frizzled-7 (FZD7) cysteine-rich domain; One of 'all 10 human Frizzled CRDs'; also called FZD7 CRD; source: HEK293T constitutively expressing ER-localised biotin ligase, transfected, biotinylated in vivo; not shown: Avi3, C-terminal, kept

[8] = target: T8, biotinylated FZD8 cysteine-rich domain (CRD) (Homo sapiens, UniProt Q9H461, biotin (in vivo biotinylation of the Avi tag)); test: as above
T8 construct: human Frizzled-8 (FZD8) cysteine-rich domain; One of 'all 10 human Frizzled CRDs'; also called FZD8 CRD; source: HEK293T constitutively expressing ER-localised biotin ligase, transfected, biotinylated in vivo; not shown: Avi3, C-terminal, kept

[9] = target: T9, biotinylated FZD9 cysteine-rich domain (CRD) (Homo sapiens, UniProt O00144, biotin (in vivo biotinylation of the Avi tag)); test: as above
T9 construct: human Frizzled-9 (FZD9) cysteine-rich domain; One of 'all 10 human Frizzled CRDs'; also called FZD9 CRD; source: HEK293T constitutively expressing ER-localised biotin ligase, transfected, biotinylated in vivo; not shown: Avi3, C-terminal, kept

[10] = target: T10, biotinylated FZD10 cysteine-rich domain (CRD) (Homo sapiens, UniProt Q9ULW2, biotin (in vivo biotinylation of the Avi tag)); test: as above
T10 construct: human Frizzled-10 (FZD10) cysteine-rich domain; One of 'all 10 human Frizzled CRDs'; also called FZD10 CRD; source: HEK293T constitutively expressing ER-localised biotin ligase, transfected, biotinylated in vivo; not shown: Avi3, C-terminal, kept

[11] = target: T11, biotinylated FZD3 cysteine-rich domain (CRD) (human, UniProt Q9NPG1, biotin (in vivo biotinylation of the Avi tag)); test: BLI; Octet Red 96e; biotinylated FZD3 or FZD6 CRD immobilised, Nb8 or Wnt5a in solution; 10 mM HEPES pH 7.5, 150 mM NaCl, 0.02% Tween 20, 0.005% GDN; 1:1 binding model
T11 construct: human Frizzled-3 (FZD3), UniProt Q9NPG1, cysteine-rich domain; residues 26-138 are stated for the FZD3 CRD production construct, not expressly for the Avi-tagged one; The limits 26-138 are told for the Twin-Strep construct; also called FZD3 CRD; Frizzled3 CRD; source: HEK293T constitutively expressing ER-localised biotin ligase, transfected, biotinylated in vivo; not shown: Avi3, C-terminal, kept

T4 sequence (Q14332 whole entry, looked up, the tested form may be a part): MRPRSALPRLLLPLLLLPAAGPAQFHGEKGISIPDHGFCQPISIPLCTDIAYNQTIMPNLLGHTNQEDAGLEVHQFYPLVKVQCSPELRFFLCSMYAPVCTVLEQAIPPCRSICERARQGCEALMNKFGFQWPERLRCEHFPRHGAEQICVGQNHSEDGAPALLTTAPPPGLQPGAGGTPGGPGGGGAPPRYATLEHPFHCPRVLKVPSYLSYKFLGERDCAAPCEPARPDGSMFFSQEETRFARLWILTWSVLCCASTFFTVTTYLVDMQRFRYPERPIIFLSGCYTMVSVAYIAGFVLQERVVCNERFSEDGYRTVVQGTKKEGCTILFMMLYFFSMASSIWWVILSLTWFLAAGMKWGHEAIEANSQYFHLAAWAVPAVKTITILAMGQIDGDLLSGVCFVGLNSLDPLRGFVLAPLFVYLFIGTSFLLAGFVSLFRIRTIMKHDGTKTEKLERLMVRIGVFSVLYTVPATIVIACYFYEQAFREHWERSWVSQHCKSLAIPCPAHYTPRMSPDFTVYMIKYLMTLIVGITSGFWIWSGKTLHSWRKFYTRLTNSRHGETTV
T8 sequence (Q9H461 whole entry, looked up, the tested form may be a part): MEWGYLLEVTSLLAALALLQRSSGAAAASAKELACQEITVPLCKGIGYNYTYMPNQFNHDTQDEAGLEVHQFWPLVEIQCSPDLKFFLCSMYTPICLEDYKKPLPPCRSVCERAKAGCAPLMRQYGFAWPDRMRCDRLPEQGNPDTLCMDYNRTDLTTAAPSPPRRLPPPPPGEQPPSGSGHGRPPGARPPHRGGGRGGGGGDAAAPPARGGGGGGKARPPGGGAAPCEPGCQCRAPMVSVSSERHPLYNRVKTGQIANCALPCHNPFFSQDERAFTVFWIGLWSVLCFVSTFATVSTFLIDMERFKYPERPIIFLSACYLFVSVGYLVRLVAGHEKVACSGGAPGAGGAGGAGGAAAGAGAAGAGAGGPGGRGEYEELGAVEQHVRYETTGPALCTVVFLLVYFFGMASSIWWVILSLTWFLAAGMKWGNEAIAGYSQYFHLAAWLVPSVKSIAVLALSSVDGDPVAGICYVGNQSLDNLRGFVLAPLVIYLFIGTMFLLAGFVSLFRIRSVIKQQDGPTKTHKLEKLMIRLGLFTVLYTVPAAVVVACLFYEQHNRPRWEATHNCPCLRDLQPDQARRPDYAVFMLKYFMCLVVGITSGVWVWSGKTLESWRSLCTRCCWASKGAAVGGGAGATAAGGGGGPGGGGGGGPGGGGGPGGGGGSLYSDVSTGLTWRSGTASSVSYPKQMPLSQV
T2 sequence (O60353 19-706): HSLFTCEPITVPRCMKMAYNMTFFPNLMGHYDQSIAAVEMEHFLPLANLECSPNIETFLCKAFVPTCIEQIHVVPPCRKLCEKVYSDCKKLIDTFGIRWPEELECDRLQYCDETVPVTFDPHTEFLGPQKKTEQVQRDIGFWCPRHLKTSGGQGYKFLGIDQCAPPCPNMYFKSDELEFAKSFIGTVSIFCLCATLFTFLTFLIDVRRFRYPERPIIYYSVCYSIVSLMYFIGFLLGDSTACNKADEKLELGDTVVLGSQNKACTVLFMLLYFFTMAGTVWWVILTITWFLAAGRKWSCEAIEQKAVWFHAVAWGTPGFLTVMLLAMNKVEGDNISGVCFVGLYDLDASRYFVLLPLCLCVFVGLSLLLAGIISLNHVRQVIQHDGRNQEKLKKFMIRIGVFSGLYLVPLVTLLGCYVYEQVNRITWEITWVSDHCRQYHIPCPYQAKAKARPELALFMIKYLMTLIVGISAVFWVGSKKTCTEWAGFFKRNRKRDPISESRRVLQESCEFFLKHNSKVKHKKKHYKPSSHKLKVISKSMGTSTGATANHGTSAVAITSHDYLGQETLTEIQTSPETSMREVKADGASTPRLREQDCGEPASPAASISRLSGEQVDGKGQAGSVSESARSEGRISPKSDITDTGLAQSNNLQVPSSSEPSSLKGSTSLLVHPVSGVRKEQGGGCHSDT
T9 sequence (O00144 whole entry, looked up, the tested form may be a part): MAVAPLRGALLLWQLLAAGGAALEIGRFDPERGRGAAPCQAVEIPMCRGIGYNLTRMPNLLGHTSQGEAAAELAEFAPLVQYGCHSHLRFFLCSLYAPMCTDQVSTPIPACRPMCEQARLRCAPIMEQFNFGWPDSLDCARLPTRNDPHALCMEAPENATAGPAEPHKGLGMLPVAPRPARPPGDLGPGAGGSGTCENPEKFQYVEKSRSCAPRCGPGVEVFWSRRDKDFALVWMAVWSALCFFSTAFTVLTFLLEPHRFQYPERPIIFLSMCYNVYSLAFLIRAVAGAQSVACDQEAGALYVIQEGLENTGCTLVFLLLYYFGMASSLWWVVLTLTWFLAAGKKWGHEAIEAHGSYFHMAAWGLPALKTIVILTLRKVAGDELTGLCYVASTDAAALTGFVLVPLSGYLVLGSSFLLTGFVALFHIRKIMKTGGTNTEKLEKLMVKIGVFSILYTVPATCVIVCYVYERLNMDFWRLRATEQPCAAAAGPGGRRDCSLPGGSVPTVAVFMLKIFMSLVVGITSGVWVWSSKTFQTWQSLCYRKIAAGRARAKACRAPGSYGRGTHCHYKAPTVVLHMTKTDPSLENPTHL
T10 sequence (Q9ULW2 whole entry, looked up, the tested form may be a part): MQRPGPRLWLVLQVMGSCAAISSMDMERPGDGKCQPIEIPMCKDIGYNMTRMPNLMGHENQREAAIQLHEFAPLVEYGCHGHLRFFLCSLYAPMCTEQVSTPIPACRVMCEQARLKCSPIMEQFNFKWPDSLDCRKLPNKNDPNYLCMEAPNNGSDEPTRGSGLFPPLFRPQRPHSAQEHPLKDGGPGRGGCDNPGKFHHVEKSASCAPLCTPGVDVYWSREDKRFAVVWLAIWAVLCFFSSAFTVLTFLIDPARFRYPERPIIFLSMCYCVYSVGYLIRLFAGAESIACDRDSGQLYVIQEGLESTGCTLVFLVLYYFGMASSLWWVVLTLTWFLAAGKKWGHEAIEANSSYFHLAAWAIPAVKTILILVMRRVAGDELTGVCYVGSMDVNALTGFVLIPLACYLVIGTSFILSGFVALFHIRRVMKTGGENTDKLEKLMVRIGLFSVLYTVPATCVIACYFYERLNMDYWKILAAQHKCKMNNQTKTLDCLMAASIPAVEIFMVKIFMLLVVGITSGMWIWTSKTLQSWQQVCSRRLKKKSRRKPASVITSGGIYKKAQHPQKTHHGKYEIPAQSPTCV
T3 sequence (Q9UP38 whole entry, looked up, the tested form may be a part): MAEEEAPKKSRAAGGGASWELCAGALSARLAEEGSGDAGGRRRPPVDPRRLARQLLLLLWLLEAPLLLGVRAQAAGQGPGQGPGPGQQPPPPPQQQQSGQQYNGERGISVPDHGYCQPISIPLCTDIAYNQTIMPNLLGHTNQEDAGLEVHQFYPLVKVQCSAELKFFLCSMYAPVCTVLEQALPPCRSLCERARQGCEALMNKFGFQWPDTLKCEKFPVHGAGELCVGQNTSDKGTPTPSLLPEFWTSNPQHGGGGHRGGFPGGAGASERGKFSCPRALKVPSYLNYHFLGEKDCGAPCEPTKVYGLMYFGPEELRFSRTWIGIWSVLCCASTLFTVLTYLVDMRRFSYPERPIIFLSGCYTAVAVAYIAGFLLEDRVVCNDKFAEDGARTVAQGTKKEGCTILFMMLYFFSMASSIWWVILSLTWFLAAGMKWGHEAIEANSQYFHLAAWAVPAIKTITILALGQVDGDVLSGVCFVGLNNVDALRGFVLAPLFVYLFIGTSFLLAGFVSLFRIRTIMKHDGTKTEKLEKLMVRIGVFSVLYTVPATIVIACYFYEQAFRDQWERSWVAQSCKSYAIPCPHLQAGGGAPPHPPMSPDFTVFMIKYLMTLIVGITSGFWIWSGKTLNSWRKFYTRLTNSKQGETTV
T6 sequence (Q13467 whole entry, looked up, the tested form may be a part): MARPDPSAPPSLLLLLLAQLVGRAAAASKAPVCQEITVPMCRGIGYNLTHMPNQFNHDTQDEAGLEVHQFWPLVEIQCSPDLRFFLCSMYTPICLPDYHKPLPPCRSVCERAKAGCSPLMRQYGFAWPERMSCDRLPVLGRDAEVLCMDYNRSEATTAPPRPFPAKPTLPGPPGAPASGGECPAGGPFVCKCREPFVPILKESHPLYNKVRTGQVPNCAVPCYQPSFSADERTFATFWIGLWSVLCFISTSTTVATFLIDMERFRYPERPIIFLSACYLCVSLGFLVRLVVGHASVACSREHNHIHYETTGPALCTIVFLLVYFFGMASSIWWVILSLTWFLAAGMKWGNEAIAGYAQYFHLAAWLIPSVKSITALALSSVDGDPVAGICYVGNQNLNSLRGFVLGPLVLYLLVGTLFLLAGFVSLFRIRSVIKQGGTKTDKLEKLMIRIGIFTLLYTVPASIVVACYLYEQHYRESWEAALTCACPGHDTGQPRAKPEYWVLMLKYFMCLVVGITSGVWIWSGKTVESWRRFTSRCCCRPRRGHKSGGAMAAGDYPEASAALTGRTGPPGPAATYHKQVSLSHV
T5 sequence (Q9ULV1 whole entry, looked up, the tested form may be a part): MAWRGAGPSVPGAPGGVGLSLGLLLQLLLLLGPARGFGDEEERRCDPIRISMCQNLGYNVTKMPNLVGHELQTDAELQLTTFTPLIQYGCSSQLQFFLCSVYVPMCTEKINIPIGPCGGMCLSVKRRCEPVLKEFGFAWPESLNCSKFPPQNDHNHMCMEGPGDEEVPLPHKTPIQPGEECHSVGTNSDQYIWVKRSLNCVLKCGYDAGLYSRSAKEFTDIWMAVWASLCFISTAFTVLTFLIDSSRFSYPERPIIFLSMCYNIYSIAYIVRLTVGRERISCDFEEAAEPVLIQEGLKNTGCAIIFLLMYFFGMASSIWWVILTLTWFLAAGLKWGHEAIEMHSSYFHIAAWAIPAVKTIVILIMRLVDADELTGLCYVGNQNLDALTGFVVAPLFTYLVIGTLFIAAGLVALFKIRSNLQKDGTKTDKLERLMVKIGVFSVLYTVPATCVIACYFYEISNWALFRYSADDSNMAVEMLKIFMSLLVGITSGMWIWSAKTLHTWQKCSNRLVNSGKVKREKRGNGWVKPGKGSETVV

- binding result [1]: binds
B1: Nb1 (VHH)
VHH: QVQLVESGGGLVQAGGSLRLSCAASGNIFSINAMGWYRQAAGKQRELVAAITSGGSTNYADSVKGRFTISRDNAKNTVYLQMNSLKPEDTAVYYCNADEWALGEHWGQGTQVTVSS
notes: also called nanobody 1; family 1 (Nb1, 3-6)

- Kd [1]: 32 ± 2.8 nM
- Kd [2]: 410 ± 41 nM
B2: Nb9 (VHH)
VHH: QVQLVESGGGLVQAGGSLRLSCTASGRIFNLDVMGWYRQAPGKRRELVADITSGGKINYADSVKGRFTISRDNTKDTVYLQMNSLKPEDTAVYYCNAEVEWLDMDYWGKGTQVTVSS
notes: most of the chain also in PDB 8QW4 (as the megabody); also called nanobody 9; family 3

- binding result [3]: no binding
- binding result [4]: no binding
- binding result [5]: no binding
- binding result [6]: no binding
- binding result [7]: no binding
- binding result [8]: no binding
- binding result [9]: no binding
- binding result [10]: no binding
- Kd [11]: 19.2 ± 1.2 nM
B3: Nb8 (VHH)
VHH: QVQLVESGGGLVQAGGSLRLSCAASGSISSINAMGWYRQAPGKQRELVAAITSGGSTNYADSVKGRFTISRDNAKNTVYLQMNSLKPGDTAVYYCNLLYYIDYVEYDYWGQGTQVTVSS
notes: also in PDB 8Q7O; residues 1-119 are named for the Nb8 module of the surrogate; Untagged in the crystallisation sample; also called nanobody 8; family 2; source: co-expressed untagged with FZD3 CRD in HEK293S GnTI- cells (for crystallisation)
